Assay results published in patent US20140147453.

T1: MFK24 peptide (mdhFas-1-GPQGIAG-QERGDSLA) (UniProt P82198)
T1 sequence: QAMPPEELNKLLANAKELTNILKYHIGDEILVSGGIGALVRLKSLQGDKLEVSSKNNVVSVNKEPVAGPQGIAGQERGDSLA

T2: MFK25 peptide (mdhFas-1-GPLGIAG-QERGDSLA) (UniProt P82198)
T2 sequence: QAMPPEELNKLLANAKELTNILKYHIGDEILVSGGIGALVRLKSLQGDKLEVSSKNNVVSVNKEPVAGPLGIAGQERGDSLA

T3: MFK23 peptide (mdhFas-1-GPLGVRG-QERGDSLA) (UniProt P82198)
T3 sequence: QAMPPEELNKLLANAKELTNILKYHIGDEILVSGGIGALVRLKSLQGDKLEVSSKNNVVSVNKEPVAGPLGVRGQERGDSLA

T4: MFK24 peptide (mdhFas-1-GPQGIAG-QERGDSLA), P82198
T4 chain: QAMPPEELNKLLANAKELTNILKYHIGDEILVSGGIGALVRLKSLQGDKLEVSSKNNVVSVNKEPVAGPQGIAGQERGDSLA


Key:
[1] = target: T1, MFK24 peptide (mdhFas-1-GPQGIAG-QERGDSLA)
[2] = target: T2, MFK25 peptide (mdhFas-1-GPLGIAG-QERGDSLA)
[3] = target: T3, MFK23 peptide (mdhFas-1-GPLGVRG-QERGDSLA)
[4] = target: T4, MFK24 peptide …

Sequence of MMP-2 (matrix metalloproteinase 2) (P08253 110-660): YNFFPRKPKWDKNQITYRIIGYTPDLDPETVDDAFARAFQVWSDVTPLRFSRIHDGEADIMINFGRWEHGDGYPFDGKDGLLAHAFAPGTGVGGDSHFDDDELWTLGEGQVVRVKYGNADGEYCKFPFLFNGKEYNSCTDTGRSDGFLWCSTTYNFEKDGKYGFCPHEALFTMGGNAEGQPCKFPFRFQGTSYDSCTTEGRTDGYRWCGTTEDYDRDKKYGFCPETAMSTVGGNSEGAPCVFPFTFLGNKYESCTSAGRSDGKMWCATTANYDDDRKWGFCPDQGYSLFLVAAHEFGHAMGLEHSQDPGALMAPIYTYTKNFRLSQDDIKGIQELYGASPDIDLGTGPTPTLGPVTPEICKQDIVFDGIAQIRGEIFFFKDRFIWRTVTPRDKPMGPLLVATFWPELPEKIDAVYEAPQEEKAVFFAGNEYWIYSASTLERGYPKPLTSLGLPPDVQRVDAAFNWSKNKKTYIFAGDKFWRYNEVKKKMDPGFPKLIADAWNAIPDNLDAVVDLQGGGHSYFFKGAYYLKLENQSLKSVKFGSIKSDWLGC

Molecule | enzymatic digestion test (immunoblot with anti-Histidine or anti-Bigh3) [1] | enzymatic digestion test (immunoblot with anti-Histidine or anti-Bigh3) [2] | enzymatic digestion test (immunoblot with anti-Histidine or anti-Bigh3) [3] | culture analysis of enzymatic digestion (human FLS + IL-1β, 1 uM peptide, 3 and 6 hours; immunoblot anti-histidine versus anti-βig-h3) [4]
MMP-1 (matrix metalloproteinase 1) | MFK24 was concentration-dependently cleaved through treatment with MMP-1 | MFK25 was concentration-dependently cleaved through treatment with MMP-1, MMP-2 and MMP-3, and especially, well cleaved by MMP-1 and MMP-3 | – | –
MMP-2 (matrix metalloproteinase 2) | – | MFK25 was concentration-dependently cleaved through treatment with MMP-1, MMP-2 and MMP-3 | MFK23 was concentration-dependently cleaved through treatment with MMP-2 | –
MMP-3 (matrix metalloproteinase 3) | – | MFK25 was concentration-dependently cleaved through treatment with MMP-1, MMP-2 and MMP-3, and especially, well cleaved by MMP-1 and MMP-3 | – | –
cathepsin D | – | MFK25 was not cleaved through treatment with cathepsin K, L or D | MFK23 was not cleaved through treatment with cathepsin K, L or D | –
cathepsin L | – | MFK25 was not cleaved through treatment with cathepsin K, L or D | MFK23 was not cleaved through treatment with cathepsin K, L or D | –
MMP-1 secreted from a human Synovial membrane cell (human FLS stimulated with IL-1β) (protein) FPATLETQEQDVDLVQKYLEKYYNLKNDGRQVEKRRNSGPVVEKLKQMQEFFGLKVTGKPDAETLKVMKQPRCGVPDVAQFVLTEGNPRWEQTHLTYRIENYTPDLPRADVDHAIEKAFQLWSNVTPLTFTKVSEGQADIMISFVRGDHRDNSPFDGPGGNLAHAFQPGPGIGGDAHFDEDERWTNNFREYNLHRVAAHELGHSLGLSHSTDIGALMYPSYTFSGDVQLAQDDIDGIQAIYGRSQNPVQPIGPQTPKACDSKLTFDAITTIRGEVMFFKDRFYMRTNPFYPEVELNFISVFWPQLPNGLEAAYEFADRDEVRFFKGNKYWAVQGQNVLHGYPKDIYSSFGFPRTVKHIDAALSEENTGKTYFFVANKYWRYDEYKRSMDPGYPKMIAHDFPGIGHKVDAVFMKDGFFYFFHGTRQYKFDPKTKRILTLQKANSWFNCRKN | – | – | – | in the use of the anti-histidine antibody, MFK24 was measured in a smaller amount than that in the use of the anti-βig-h3 antibody
cathepsin K (enzyme, UniProt P43235 115-329, looked up, species assumed) Cathepsin K: APDSVDYRKKGYVTPVKNQGQCGSCWAFSSVGALEGQLKKKTGKLLNLSPQNLVDCVSENDGCGGGYMTNAFQYVQKNRGIDSEDAYPYVGQEESCMYNPTGKAAKCRGYREIPEGNEKALKRAVARVGPVSVAIDASLTSFQFYSKGVYYDESCNSDNLNHAVLAVGYGIQKGNKHWIIKNSWGENWGNKGYILMARNKNNACGIANLASFPKM | – | MFK25 was not cleaved through treatment with cathepsin K, L or D | MFK23 was not cleaved through treatment with cathepsin K, L or D | –
